Laboratory results reported in patent US20220112292A1 (ALETA BIOTHERAPEUTICS, published 2022).
Numbering of substitutions follows the chain as printed. Blank lines part the entries; values can stand above or below the binder they belong to.

Experiments:
CLL-1 on U937 cells [1] = target: T1, CLL-1 on U937 cells (human, UniProt Q5QGZ9 1-265); experiment: flow cytometry on U937 cells, VHH at 3 ug/ml, detected with a-His-PE; a-His-PE alone 1.1% and 5,576.5, unstained 0.6% and 5,793.5
T1 construct: whole, on cells; also called CLEC12A; Clec12A
T1 sequence: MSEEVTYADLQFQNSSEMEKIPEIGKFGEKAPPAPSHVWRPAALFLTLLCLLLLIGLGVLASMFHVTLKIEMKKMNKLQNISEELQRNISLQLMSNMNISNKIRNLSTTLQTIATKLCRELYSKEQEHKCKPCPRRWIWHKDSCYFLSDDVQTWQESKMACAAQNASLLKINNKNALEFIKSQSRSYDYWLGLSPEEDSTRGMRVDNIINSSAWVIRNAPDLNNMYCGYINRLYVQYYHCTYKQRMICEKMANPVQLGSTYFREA
Experimental: U937 cell binding by VHH clones was assessed. Briefly, the method included: U937 cells (2.5×10\hat{ }5) were Fc blocked (human Fc block, BD Cat. #BDB564220) for 10 min at room temperature, then washed once with FACS buffer (PBS+1% BSA+0.1% Sodium Azide) by spinning at 500G for 2 min; VHH clones (3 μg/ml as final conc) in FACS buffer were added to the cell pellets and incubated for 30 min at 4° C., then washed twice with FACS buffer by spinning at 500G for 2 min; anti-His-PE (R&D Systems, Cat. #IC050P) was added to cells; the mixture was incubated for 30 min at 4° C. and washed twice with FACS buffer by spinning at 500G for 2 min; 1% PFA (Paraformaldehyde) in PBS was added to cell pellet to fix the cells, followed by FACS analysis. VHH clones tested: 1B5: stock=1.6 mg/ml; 1H1: stock=1.9 mg/ml; 1G6: stock=1.1 mg/ml; 2F3: stock=1.45 mg/ml; 2F5: stock=0.5 mg/ml; 2H3: stock=2 mg/ml. As shown in FIGS. 2A-2C, binding of clones 1H1, 1G6, 2F5 and 2H3 to U937 cells was detected with anti-His-PE; very little binding of clones 1B5 and 2F3 to U937 cells could be detected by anti-His-PE.

CLL-1 on U937 cells [2] = target: T1, CLL-1 on U937 cells; experiment: flow cytometry on U937 cells, clone lysate, anti-cMyc-PE (Table 3 summary)
[3] = target: T2, Clec12A-His (Sino Biological, 11896-H07H) (human, UniProt Q5QGZ9 65-265); experiment: ELISA on plate coated with CLEC12a-His; unlabeled VHH at 10 ug/ml first, biotinylated VHH at 0.2 ug/ml second, streptavidin-HRP
T2 construct: Bought soluble protein; also called soluble CLEC12a-His; Sino Biological Clec12A
T2 chain: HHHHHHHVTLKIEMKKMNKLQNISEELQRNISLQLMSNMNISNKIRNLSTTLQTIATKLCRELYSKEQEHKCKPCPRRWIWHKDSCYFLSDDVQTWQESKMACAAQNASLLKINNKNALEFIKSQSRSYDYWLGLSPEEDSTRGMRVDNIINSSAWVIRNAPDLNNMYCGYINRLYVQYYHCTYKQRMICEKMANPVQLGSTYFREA
Experimental: ELISAs were used to determine if the VHH clones recognized distinct or similar epitopes. […] The plate was blocked with 0.3% nonfat milk in TBS (200 ul/well) for 1 hr at RT. The plates were washed 3× with 1×TBST (0.1 M Tris, 0.5 M NaCl and 0.05% Tween-20). The test anti-CLEC12a VHHs were added at 10 ug/ml horizontally across the plate, 100 ul per well and incubated for 1 h. Without washing, the test anti-CLEC12a biotinylated VHHs were added at 0.2 ug/ml vertically down the plate, 100 ul per well and incubate for 1 h. After being washed 3× with 1×TBST, HRP-conjugated streptavidin (Pierce #21130) at 1:2000 (100 ul/well) was added, followed by incubation at RT in the dark for 1 hr. For detection, 1-Step Ultra TMB-ELISA reagent (Thermo Fisher #34028) was added at 100 ul per well and read at 450 nm. […] The 1H1 VHH was distinct from these, and 2C2 was intermediate. Results are depicted in FIGS. 7A-7D.

CLL-1 on U937 cells [4] = target: T1, CLL-1 on U937 cells; experiment: flow cytometry on U937 cells, 3x serial dilutions from 3 ug/ml, anti-His-PE
Experimental: (§1) U937 cell binding by VHH clones was assessed using varying doses to determine EC50s. Briefly, the method included: VHH clones (3 ug/ml as starting conc./test, with 3× serial dilutions) in FACS buffer were added to Fc blocked U937 or 293T-CLL1 cells (2.5×10\hat{ }5), the mixtures were incubated for 30 min at 4° C., then washed twice with FACS buffer by spinning at 500G for 2 min; anti-His-PE was added to cells, the mixture was incubated for 30 min at 4° C. and washed twice with FACS buffer by spinning at 500G for 2 min; 1% PFA (Paraformaldehyde) in PBS was added to cell pellet to fix the cells, followed by FACS analysis. VHH clones tested: 1B5: stock=1.6 mg/ml; 1H1: stock=1.9 mg/ml; 1G6: stock=1.1 mg/ml; 2F3: stock=1.45 mg/ml; 2F5: stock=0.5 mg/ml; 2H3: stock=2 mg/ml.

CLL-1 on U937 cells [5] = target: T1, CLL-1 on U937 cells; experiment: flow cytometry on U937 cells, % binding against ng/ml, detected with a-His-PE; EC50 of the fitted curve
Experimental: as §1

CLL-1 on U937 cells [6] = target: T1, CLL-1 on U937 cells; experiment: flow cytometry on U937 cells, VHH in 3-fold dilutions, detected with a-His-PE; percent of cells positive
Experimental: as §1

CLL-1 on U937 cells [7] = target: T1, CLL-1 on U937 cells; experiment: flow cytometry on U937 cells, % binding against ng/ml, detected with a-His-PE; EC50 of the fitted curve; the curve of 1H1 reaches about 70% at 3000 ng/ml without a plateau
Experimental: as §1

% of This Plot (R3 PE+) (CLL-1 on U937 cells [1]): 2.3%
Mean FL2-A (R3 gate) (CLL-1 on U937 cells [1]): 4130
B1: VHH clone 1B5 (VHH)
VHH: QVQLQESGGGLVQAGGSLRLSCVVSGATSNVNAMGWYRQAPGKERELVAAISSGGSTSYRDSVKGRFTISRDNAKNTLYLQMNSLKPEDTAMYYCAAQDWATEGYEYDYWGQGTLVTVSS
notes: Includes myc and His tags

% FACS positive (CLL-1 on U937 cells [2]): 59.7%
B2: VHH clone 2G10 (VHH)
VHH: QVQLQQSGGGLVQAGGSLRLSCAASGSIFSINAMGWYRQAPGKRREMVAVVSRFGETTYTGSVKGRFTISRINRNNTVFLQMNRLKPEDTAVYYCNARIRGNYGSRIDYWGQGTQVTVSS
notes: Includes myc and His tags

binding result [3]: binds
B3: VHH clone 1B1 (VHH)
VHH: QVQLQESGGGLVQAGGSLRLSCAASGSIFAINEINLMGWYRQAPGKQRELVAACASDGNTYYADSVKGRFTISRDNAEKTVYLQMNNLKPDDTAVYYCDANSRGNYYSGQGTQVTVSS
notes: also called 2A6; 2A10

EC50 (CLL-1 on U937 cells [4]): 0.49 nM
EC50 (CLL-1 on U937 cells [5]): 7.72 ng/mL
% binding at 1.4 ng/ml (CLL-1 on U937 cells [6]): 6%
% binding at 4.1 ng/ml (CLL-1 on U937 cells [6]): 26.8%
% binding at 12.3 ng/ml (CLL-1 on U937 cells [6]): 56.7%
% binding at 37.0 ng/ml (CLL-1 on U937 cells [6]): 83.1%
% binding at 111.1 ng/ml (CLL-1 on U937 cells [6]): 87.7%
% binding at 333.3 ng/ml (CLL-1 on U937 cells [6]): 88.2%
% binding at 1000 ng/ml (CLL-1 on U937 cells [6]): 88.6%
% binding at 3000 ng/ml (CLL-1 on U937 cells [6]): 88.9%
binding result [3]: binds
% of This Plot (R3 PE+) (CLL-1 on U937 cells [1]): 95.6%
Mean FL2-A (R3 gate) (CLL-1 on U937 cells [1]): 9310
B4: VHH clone 1G6 (VHH)
VHH: B3 VHH with E6Q
notes: includes myc and His tags; also called 2G11; 2H2

% FACS positive (CLL-1 on U937 cells [2]): 73.4%
B5: VHH clone 2C8 (VHH)
VHH: B3 VHH with Q5V, Q113L
notes: Includes myc and His tags

% FACS positive (CLL-1 on U937 cells [2]): 86.3%
B6: VHH clone 2A11 (VHH)
VHH: B3 VHH with A14P, Q113L
notes: Includes myc and His tags

EC50 (CLL-1 on U937 cells [4]): 0.47 nM
% FACS positive (CLL-1 on U937 cells [2]): 72.7%
EC50 (CLL-1 on U937 cells [5]): 7.45 ng/mL
% binding at 1.4 ng/ml (CLL-1 on U937 cells [6]): 4.6%
% binding at 4.1 ng/ml (CLL-1 on U937 cells [6]): 24.2%
% binding at 12.3 ng/ml (CLL-1 on U937 cells [6]): 59.3%
% binding at 37.0 ng/ml (CLL-1 on U937 cells [6]): 83.1%
% binding at 111.1 ng/ml (CLL-1 on U937 cells [6]): 86%
% binding at 333.3 ng/ml (CLL-1 on U937 cells [6]): 86.7%
% binding at 1000 ng/ml (CLL-1 on U937 cells [6]): 85.9%
% binding at 3000 ng/ml (CLL-1 on U937 cells [6]): 86.4%
binding result [3]: binds
% of This Plot (R3 PE+) (CLL-1 on U937 cells [1]): 95.5%
Mean FL2-A (R3 gate) (CLL-1 on U937 cells [1]): 9260
B7: VHH clone 2F5 (VHH)
VHH: B3 VHH with E6Q, V12A, A14T, R19I
notes: Includes myc and His tags

% FACS positive (CLL-1 on U937 cells [2]): 85.9%
B8: VHH clone 2H10 (VHH)
VHH: B3 VHH with S7F
notes: includes myc and His tags; also called 1G3

% FACS positive (CLL-1 on U937 cells [2]): 14.6%
B9: VHH clone 1D2 (VHH)
VHH: QVQLQQSGGGLVQPGGSLRLSCAASGFAFDDYAMIWVRQGPGKGLEWVSSISWNGGGTYYAESIVGRFTVSRDNAKKMVYLQMNGLKSEDTAMYYCVKLVDSGWYSAYDYWGQGTQVTVSS
notes: Includes myc and His tags

% FACS positive (CLL-1 on U937 cells [2]): 77.8%
B10: VHH clone 1B11 (VHH)
VHH: AVQLQESGGGLVQAGGSLRLSCAASGSDRSINVMNWYRQAPGKQRELVAAITSGGTTNYAQSVKGRVTISRDSAKNTVYLQMNSLKPEDTAVYFCKADTRWGGMYWGPGTQVTVSS
notes: Includes myc and His tags

% FACS positive (CLL-1 on U937 cells [2]): 40.1%
B11: VHH clone 2A8 (VHH)
VHH: QVQLQAFGGGMVQAGESLRLSCVASGNDISGSAMAWYRAHLGAERELVAVDAPRERPFYIDPVIGRFTISRDDRNKMLYLQMNDLRPDDTATYWCGPSLRTFHGREWYRPPWFTSWGQGTQVTVSS
notes: Includes myc and His tags

% FACS positive (CLL-1 on U937 cells [2]): 84.9%
binding result [3]: binds
B12: VHH clone 1A10 (VHH)
VHH: QVQLQESGGGLVQVGESLRLSCVVSGDTRSINLMGWYRQAPGKQRELVAACASDGNTYYADSVKGRFTISRDNAEKTVYLQMNNLKPDDTAVYYCDANSRGNYYSGQGTLVTVSS
notes: Includes myc and His tags

% of This Plot (R3 PE+) (CLL-1 on U937 cells [1]): 12.4%
Mean FL2-A (R3 gate) (CLL-1 on U937 cells [1]): 3570
B13: VHH clone 2F3 (VHH)
VHH: QVQLQAFGGGLVQPGGSLRLSCVVSGTMFSGKDVNWLRQAPGKHVEVVATVSSDGGTDYADFVKGRFTISRDDAKNTVNLQMNSLEPEDTANYMCHFLWGRHYWGQGTQVTVSS
notes: Includes myc and His tags

EC50 (CLL-1 on U937 cells [4]): 81 nM
% FACS positive (CLL-1 on U937 cells [2]): 10.8%
% binding at 1.4 ng/ml (CLL-1 on U937 cells [6]): 0.6%
% binding at 4.1 ng/ml (CLL-1 on U937 cells [6]): 0.7%
% binding at 12.3 ng/ml (CLL-1 on U937 cells [6]): 0.7%
% binding at 37.0 ng/ml (CLL-1 on U937 cells [6]): 0.9%
% binding at 111.1 ng/ml (CLL-1 on U937 cells [6]): 2.1%
% binding at 333.3 ng/ml (CLL-1 on U937 cells [6]): 10.4%
% binding at 1000 ng/ml (CLL-1 on U937 cells [6]): 35.7%
% binding at 3000 ng/ml (CLL-1 on U937 cells [6]): 71%
binding result [3]: binds
% of This Plot (R3 PE+) (CLL-1 on U937 cells [1]): 88.6%
Mean FL2-A (R3 gate) (CLL-1 on U937 cells [1]): 6730
EC50 (CLL-1 on U937 cells [7]): 1370 ng/mL
B14: VHH clone 1H1 (VHH)
VHH: QVQLQESGGGLVQPGGSLRLSCAASGFTFNSYAMTWVRQAPGKGLEWVSDINSGGGSTNYADSVKGRFTISRDNAKNTLYLQMNSLKPEDTAVYYCATELRGSDYYRGPIREYAYWGQGTLVTVSS
notes: includes myc and His tags; also called 2F4
